Data on four molecules can be found in patent publication US20030220239A1 (published 2003).

For assay [1], the target named is HLA-A2.1 (HLA-A*0201) on T2 cells (human). As to the kind of experiment: T2 cell HLA-A2 stabilisation, flow cytometry. Background: In flow cytometry, cells or beads pass a laser one at a time.
The target is the same in assay [2]. The assay is described as follows: T2 cell HLA-A2.1 stabilisation, flow cytometry.
Method: Peptide was mixed with the cells by repipeting before distributing to the plate (alternatively peptide can be added to individual wells), and the plate was rocked gently for 2 minutes. Incubation was in a 5% CO₂ incubator at 37° C. The next day the unbound peptide was removed by washing twice with serum free RPMI medium and a saturating amount of anti-class I HLA monoclonal antibody, fluorescein isothiocyanate (FITC)-conjugated anti-HLA A2, A28 (One Lambda, Canoga Park, Calif.) was added. After incubation for 30 minutes at 4° C., cells were washed 3 times with PBS supplemented with 0.5% BSA, 0.05% (w/v) sodium azide, pH 7.4-7.6 (staining buffer). (Alternatively W6/32 (Sigma) can be used as the anti-class I HLA monoclonal antibody the cells washed with staining buffer and then incubated with fluorescein isothiocyanate (FITC)-conjugated goat F(ab′) antimouse-IgG (Sigma) for 30 min at 4° C. and washed 3 times as before.) The cells were resuspended in 0.5 ml staining buffer. […] If flow cytometry is not to be performed immediately the cells can be fixed by adding a quarter volume of 2% paraformaldehyde and storing in the dark at 4° C.
For assay [3] the target is unchanged. As to the kind of experiment: T2 cell HLA-A*0201 stabilisation, flow cytometry.

Consider FLPWHRLFL (also called Tyr 207-215) [tyrosinase207-215, FLPWHRLFL], for which the binding result in assay [1] is listed as “binds”.

With LPWHRLFLL (also called Tyr 208-216) [tyrosinase208-216, LPWHRLFLL], the binding result in assay [1] is listed as “binds”. As for KASEKIFYV [SSX-2 41-49, KASEKIFYV], in assay [2], the binding result is recorded as “binds”. In the case of MMNDQLMFL [PSMA663-671 (SEQ ID NO. 66)], in assay [3], the binding result is “binds”.
